Laboratory results reported in patent US20130224191A1, “NOTUM PROTEIN MODULATORS AND METHODS OF USE” (priority 2010, published 2013).

Assays:
[1] = target: T1, Notum (Homo sapiens, UniProt Q6P988); experiment: ELISA, fixed antibody against serial dilutions of antigen; assay type: binding
T1 sequence (Q6P988 20-496): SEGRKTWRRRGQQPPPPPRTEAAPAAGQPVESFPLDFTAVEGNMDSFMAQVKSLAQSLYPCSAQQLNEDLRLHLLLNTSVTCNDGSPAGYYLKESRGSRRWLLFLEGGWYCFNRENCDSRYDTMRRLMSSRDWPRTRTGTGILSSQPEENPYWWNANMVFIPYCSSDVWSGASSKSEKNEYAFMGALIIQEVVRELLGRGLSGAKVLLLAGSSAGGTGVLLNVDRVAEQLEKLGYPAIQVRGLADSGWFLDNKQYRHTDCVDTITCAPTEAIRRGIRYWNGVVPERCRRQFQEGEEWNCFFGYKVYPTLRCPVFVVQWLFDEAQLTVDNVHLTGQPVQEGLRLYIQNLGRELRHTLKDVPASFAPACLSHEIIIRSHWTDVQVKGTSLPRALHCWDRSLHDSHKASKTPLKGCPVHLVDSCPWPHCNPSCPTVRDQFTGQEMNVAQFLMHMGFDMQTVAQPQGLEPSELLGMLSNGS
Method: (§1) Three methods were used to characterize the affinity of humanized SC2.D2.2 relative to its analogous mAb with the murine variable region. First, binding signal was measured for a fixed amount of antibody probed against serial dilutions of antigen in an ELISA format. […] Second, the affinity of murine SC2.D2.2 was measured by Biacore using surface plasmon resonance (SPR) to provide the results set forth in FIG. 32A. Based on a concentration series of 12.5, 6.25, 3.125, 1.5625, 0.78125 nM and using a 1:1 Langmuir binding model, the Kd of the antibody binding to antigen was estimated to be less than 0.1 nM. Long off-rates for this interaction made accurate determination of affinity through kinetics difficult. The murine antibody was then directly compared to the humanized derivative using bio-layer interferometry analysis on a ForteBIO RED (ForteBIO, Inc.) with a concentration series of 250, 125, and 62.5 nM antigen.

[2] = target: T1, Notum; experiment: Bio-layer interferometry on ForteBIO RED; assay type: binding; details: 250, 125 and 62.5 nM antigen
Method: as §1

[3] = target: T2, human Notum (recombinant or endogenous; construct not specified at the place of use) (human, UniProt Q6P988 20-496); experiment: bio-layer interferometry (ForteBIO RED), fixed antibody, antigen at 250, 125 and 62.5 nM by the text
T2 construct: also called hNotum; human Notum protein
T2 sequence: T1 sequence (Q6P988 20-496)
Method: Three methods were used to characterize the affinity of humanized SC2.D2.2 relative to its analogous mAb with the murine variable region. First, binding signal was measured for a fixed amount of antibody probed against serial dilutions of antigen in an ELISA format. Measured signal levels were substantially similar (data not shown). Second, the affinity of murine SC2.D2.2 was measured by Biacore using surface plasmon resonance (SPR) to provide the results set forth in FIG. 32A. […] Long off-rates for this interaction made accurate determination of affinity through kinetics difficult. The murine antibody was then directly compared to the humanized derivative using bio-layer interferometry analysis on a ForteBIO RED (ForteBIO, Inc.) with a concentration series of 250, 125, and 62.5 nM antigen.

B1: hSC2.D2.2 (antibody, human IgG1, V domains shown)
VH: EVQLVESGGGLVQPGGSLRLSCAASGFTFSSYGMNWVRQAPGKGLEWVSYISSSTVTTYYADSVKGRFTISRDNAKNSLYLQMNSLRDEDTAVYYCSRQNWDGGYFDVWGAGTTVTVSS
VL: DIVMTQSPLSLPVTPGEPASISCRASKSVSSSGYSYMHWYLQKPGQSPQLLIYLASNLESGVPDRFSGSGSGTDFTLKISRVEAEDVGVYYCQHSRALPLTFGAGTKLELKR
notes: Humanized variable regions cloned into vectors with human IgG1 and kappa constant regions; also called humanized SC2.D2.2
binding signal relative to antibody with murine variable region [1]: substantially similar | affinity, binding curves [2]: excellent affinity | binding result [3]: binds
